One assay concerns the target T1, CAD (Homo sapiens, UniProt Q13586).
T1 construct: For STIM1 342-448 (CAD); expressed in transfected cells; host or cells: HEK 293T
Briefly: Co-immunoprecipitation of Orai1 fragments with CAD in HEK 293T cells. The note with it: YFP-tagged Orai1 fragment with Flag-myc-CAD in HEK 293T cells. It counts as binding. As to the method:
Immunoprecipitation and Immunoblot Analysis. Transfected HEK 293T cells (12-24 h) were washed with PBS and lysed in 50 mM Tris-HCl pH 7.5, 150 mM NaCl, 1% Triton X-100, and protease inhibitors. Lysates were spun at 12,000 rpm for 10 min, and the supernatant was incubated with anti-Flag M2 agarose beads (Sigma), or anti-myc or -HA antibody followed by IgG agarose beads (Pierce). Lysates and immunoprecipitates were subjected to SDS-PAGE, probed with HRP-conjugated secondary antibody and detected by enhanced chemiluminescence (Pierce).
STIM1-CAD BINDS TO THE N- AND C-TERMINI OF ORAI1. To identify regions of Orai1 important for activation by CAD, we characterized the binding of CAD to Orai1 using two approaches. First we expressed fusions of NubG with the N-terminus, the II-III cytoplasmic loop and the C-terminus of Orai1 in yeast together with different CAD-Cub-LV constructs. […] Based on the level of b-gal activity, CAD appears to interact with the Orai1 C-terminus with a higher affinity than with the N-terminus. We next expressed fusions of YFP with the N-terminus, the II-III loop and the C-terminus of Orai1 in HEK 293T cells together with Flag-myc-CAD. […]

In another assay the test system is endogenous CRAC channels. Briefly: NFAT-luciferase assay in HEK 293T (NFAT-Luc) cells. Format: cell-based. As to conditions: following treatment with TG+PMA. As to the method:
NFAT-luciferase Assays. HEK 293T cells were co-transfected with the indicated constructs and an NFAT reporter gene (firefly luciferase gene C-terminal to 4×-NFAT site from the IL-2 gene). Cotransfection with the Renilla luciferase (pRLTK) gene driven by the TK promoter was used to control for cell number and transfection efficiency. After 12-18 h, cells were treated with a control DMSO solution (mock), PMA (1 μM), or PMA plus TG (1 μM) for 8 h. Assays were performed using the Dual Luciferase Reporter assay system (Promega). For each condition, luciferase activity was measured with 4 samples taken from duplicate wells using a 96-well automated luminometer (Turner Biosystems). Results are represented as the ratio of firefly to Renilla luciferase activity.
Identifying a Minimal Cytosolic Region of STIM1 that Opens the CRAC Channel. To identify the CRAC-activating domain of STIM1, we first tested a series of soluble cytosolic STIM1 fragments for their ability to activate an NFAT-dependent luciferase reporter gene (NFAT-luc). A series of constructs were generated by progressive truncation of the full-length cytosolic region of STIM1 (FIG. 2A; STIM1234-685; CT-STIM1) and were transiently expressed in a HEK 293T cell line containing NFAT-luc. […]

The target in assay [1] is T2, Orai1 (Homo sapiens, UniProt Q96D31).
T2 construct: expressed in transfected cells; host or cells: HEK 293
T2 sequence (Q96D31 whole entry): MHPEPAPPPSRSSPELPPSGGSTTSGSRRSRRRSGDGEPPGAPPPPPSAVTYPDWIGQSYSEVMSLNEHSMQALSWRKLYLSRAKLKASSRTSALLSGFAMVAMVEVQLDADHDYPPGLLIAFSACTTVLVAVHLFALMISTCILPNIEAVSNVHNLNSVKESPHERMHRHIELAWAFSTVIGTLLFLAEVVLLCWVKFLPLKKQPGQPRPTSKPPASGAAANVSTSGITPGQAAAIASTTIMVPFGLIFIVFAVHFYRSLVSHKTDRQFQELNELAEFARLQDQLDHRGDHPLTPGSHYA
The assay can be described thus: Store-operated Ca2+ entry by STIM1 variants, single cell Ca2+ imaging. The note with it: coexpressed with eGFP-Orai1, TG. Format: cell-based. As for the experimental part: For FIG. 7, cells were loaded as above with 2 μM fura-2/AM for 25 min. Ratiometric Ca2+ imaging was performed with 350 and 380 nm excitation in 2 mM Ca2+ Ringer's solution on an Axiovert 35 inverted microscope using a VideoProbe imaging system as described (Bautista et al., 2002). mCherry-positive cells were identified using a 540±12 nm excitation and a 580LP emission filter (Chroma).
The Role of CAD in Orai1 Binding and Activation by STIM1. A key question is whether CAD is responsible for the clustering and activation of CRAC channels by full-length STIM1 following store depletion. To address this, we measured the ability of mCherry-tagged STIM1 variants containing CAD mutations to co-cluster with eGFP-Orai1 and activate Ca^2+ entry in response to TG (FIG. 7). STIM1-Orai1 colocalization was quantified as the fraction of total STIM1 and Orai1 fluorescence that was recruited to regions of high fluorescence covariance (FIG. 13), while Ca^2+ influx was measured with single cell Ca^2+ imaging. For each set of experiments we measured mCherry and GFP fluorescence to confirm that differences in the activity of the various STIM1 constructs were not due to differences in expression level (FIG. 14).

The target in assay [2] is T2, Orai1. The assay can be described thus: Puncta formation of STIM1 variants by confocal microscopy in HEK 293 cells. Format: cell-based. The note with it: coexpressed with eGFP-Orai1, TG. As to the method: Confocal Microscopy. 6 h after transfection, HEK 293 cells were plated onto sterilized coverslips coated with poly-D-lysine and maintained in complete DMEM for an additional 12-18 h before imaging in Ringer's solution containing (in mM): 155 NaCl, 4.5 KCl, 2 CaCl2, 1 MgCl2, 10 D-glucose, and 5 Na-Hepes, pH 7.4. To deplete stores, cells were treated with 1 μM TG in Ca2+-free Ringer's (prepared by substituting 2 mM MgCl2 and 1 mM EGTA for CaCl2) for 10 min. eGFP and mCherry were excited simultaneously at 488 and 594 nm, respectively, on a Leica SP2 AOBS inverted confocal microscope equipped with a PL APO 100×/NA 1.4 oil immersion objective. Fluorescence emissions were collected at 615-840 nm (mCherry) and 510-570 nm (eGFP). All experiments were performed at 22-25° C.
Quantitation of STIM1 and Orai1 Recruitment into Puncta. Colocalization of eGFP-Orai1 and mCh-STIM1 variants was analyzed from background-corrected confocal image pairs acquired before and after store depletion. Puncta have two defining characteristics: (1) because they are sites of accumulation, STIM1 and Orai1 fluorescence intensities in puncta are greater than the respective mean intensities measured across the entire cell, and (2) because STIM1 and Orai1 co-localize in puncta, their fluorescence covariance is high. […]

T1 sequence (Q13586 342-448): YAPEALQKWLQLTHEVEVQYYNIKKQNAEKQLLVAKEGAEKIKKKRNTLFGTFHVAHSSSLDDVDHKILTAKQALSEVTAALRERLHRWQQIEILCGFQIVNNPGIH

B1: Orai11-70: Orai1 fragment aa 1-70 (protein)
chain: MHPEPAPPPSRSSPELPPSGGSTTSGSRRSRRRSGDGEPPGAPPPPPSAVTYPDWIGQSYSEVMSLNEHS
modifications: left off: small tags and cut ends
Turning to B1, the “co-immunoprecipitation with CAD” value with CAD is “not”.

B2: STIM1-DCAD: WT-STIM1 with the CAD deleted (protein)
chain: LSHSHSEKATGTSSGANSEESTAAEFCRIDKPLCHSEDEKLSFEAVRNIHKLMDDDANGDVDVEESDEFLREDLNYHDPTVKHSTFHGEDKLISVEDLWKAWKSSEVYNWTVDEVVQWLITYVELPQYEETFRKLQLSGHAMPRLAVTNTTMTGTVLKMTDRSHRQKLQLKALDTVLFGPPLLTRHNHLKDFMLVVSIVIGVGGCWFAYIQNRYSKEHMKKMMKDLEGLHRAEQSLHDLQERLHKAQEEHRTVEVEKVHLEKKLRDEINLAKQEAQRLKELREGTENERSRQKYAEEELEQVREALRKAEKELESHSSWSLVAALNIDPSWMGSTRPNPAHFIMTDDVDDMDEEIVSPLSMQSPSLQSSVRQRLTEPQHGLGSQRDLTHSDSESSLHMSDRQRVAPKPPQMSRAADEALNAMTSNGSHRLIEGVHPGSLVEKLPDSPALAKKALLALNHGLDKAHSLMELSPSAPPGGSPHLDSSRSHSPSSPDPDTPSPVGDSRALQASRNTRIPHLAGKKAVAEEDNGSIGEETDSSPGRKKFPLKIFKKPLKK
modifications: left off: large carriers
notes: WT-STIM1 with the CAD deleted
For B2, the “NFAT activation by endogenous channels” value with endogenous CRAC channels is “inhibited NFAT activation”. Moreover, the “Ca2+ entry (SOCE) after store depletion” value with Orai1 [1] was “failed to form puncta, cluster Orai1 or activate Ca^2+ entry”. In addition, the “puncta formation with Orai1 after store depletion” value with Orai1 [2] is reported as “failed to form puncta”.

Values taken from patent US20120165265A1, “Calcium Signaling Modulators Involving STIM and ORAI Proteins” (priority 2009, published 2012).
